# Results from patent publication US8026218 (UNIVERSITY OF ARIZONA, dated 2011).
# Read-outs that look alike come from different tables or passages of the source. Bridge positions count the residues as written; N and C are the ends. Square brackets hold non-standard residues; d marks the D form. Ends that are not written are not given here. * marks the point of attachment. O‑Bzl(CF3)2 = C-terminal bis(trifluoromethyl)benzyl ester; NH(3,5-(CF3)2-benzyl) = FC(F)(F)c1cc(CN*)cc(C(F)(F)F)c1; OBzl(3,5-(CF3)2) = FC(F)(F)c1cc(CO*)cc(C(F)(F)F)c1; Phe(4-Cl) = N[C@@H](Cc1ccc(Cl)cc1)C(=O)O; Phe(4-F) = N[C@@H](Cc1ccc(F)cc1)C(=O)O; Nle = CCCC[C@H](N)C(=O)O
# B1: Tyr[DCysGlyPheNleProCys]TrpNHBn(CF3)2 (peptide)
# peptide: Y[dC]GF[Nle]PCW-{NH(3,5-(CF3)2-benzyl)}
# modifications: disulfide 2-7
# notes: cyclic; also called TY035; [D-Cys2, Cys7]TY027
# B2: Tyr[DCysGlyPheDCys]ProLeuTrpNHBn(CF3)2 (peptide)
# peptide: Y[dC]GF[dC]PLW-{NH(3,5-(CF3)2-benzyl)}
# modifications: disulfide 2-5
# notes: cyclic; also called TY037; [D-Cys2, D-Cys5]TY027
# Experiments:
# [1] = target: T1, human δ opioid receptor (human, UniProt P41143 1-372); test: cell-based or functional assay
# T1 sequence (P41143 whole entry, stated change not applied): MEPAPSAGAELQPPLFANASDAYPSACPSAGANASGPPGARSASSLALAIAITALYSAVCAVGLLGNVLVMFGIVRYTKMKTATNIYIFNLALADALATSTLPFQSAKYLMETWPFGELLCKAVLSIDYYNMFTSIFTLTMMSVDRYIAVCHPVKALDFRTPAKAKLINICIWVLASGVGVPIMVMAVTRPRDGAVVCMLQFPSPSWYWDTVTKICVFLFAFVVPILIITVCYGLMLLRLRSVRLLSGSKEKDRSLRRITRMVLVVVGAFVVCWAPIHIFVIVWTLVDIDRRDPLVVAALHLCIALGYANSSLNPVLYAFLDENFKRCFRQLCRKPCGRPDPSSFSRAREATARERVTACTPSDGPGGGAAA
# [2] = target: T2, µ opioid receptor of the guinea pig isolated ileum (guinea pig, UniProt P97266 1-98); test: cell-based or functional assay
# T2 sequence (P97266 whole entry): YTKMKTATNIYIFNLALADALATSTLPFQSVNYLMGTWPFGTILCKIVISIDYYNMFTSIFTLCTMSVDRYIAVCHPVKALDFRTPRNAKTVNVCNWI
# [3] = target: T3, guinea pig NK1 receptor (guinea pig, UniProt P30547 1-407); test: cell-based or functional assay
# T3 sequence (P30547 whole entry): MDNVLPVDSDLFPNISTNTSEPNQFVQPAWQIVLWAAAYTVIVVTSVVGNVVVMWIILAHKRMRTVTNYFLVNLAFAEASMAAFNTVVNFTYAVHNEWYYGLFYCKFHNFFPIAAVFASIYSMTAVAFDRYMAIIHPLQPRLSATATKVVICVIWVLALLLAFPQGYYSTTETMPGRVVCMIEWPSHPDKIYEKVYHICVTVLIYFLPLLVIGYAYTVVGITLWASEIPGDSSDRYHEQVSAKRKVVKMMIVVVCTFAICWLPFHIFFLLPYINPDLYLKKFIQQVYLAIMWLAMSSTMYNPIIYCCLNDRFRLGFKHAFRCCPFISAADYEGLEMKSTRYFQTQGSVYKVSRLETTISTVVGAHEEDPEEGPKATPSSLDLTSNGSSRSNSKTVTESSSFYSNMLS
# [4] = target: T4, rat µ opioid receptor (rat, UniProt P33535 1-398); test: competition vs [3H]DAMGO, rMOR cell membranes
# T4 construct: whole, on cells; membrane preparations of the transfected cells were used; also called rMOR; MOR
# T4 sequence (P33535 whole entry): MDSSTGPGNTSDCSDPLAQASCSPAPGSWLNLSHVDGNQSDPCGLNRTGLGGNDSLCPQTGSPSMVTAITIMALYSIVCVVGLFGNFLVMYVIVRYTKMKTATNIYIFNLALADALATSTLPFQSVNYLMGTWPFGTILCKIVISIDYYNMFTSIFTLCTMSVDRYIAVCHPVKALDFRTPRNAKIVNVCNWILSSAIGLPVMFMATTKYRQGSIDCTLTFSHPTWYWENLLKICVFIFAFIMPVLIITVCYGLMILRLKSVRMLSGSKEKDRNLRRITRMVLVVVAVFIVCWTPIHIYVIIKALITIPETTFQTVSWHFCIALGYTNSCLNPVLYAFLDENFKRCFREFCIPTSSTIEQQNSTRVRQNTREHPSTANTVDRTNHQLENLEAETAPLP
# [5] = target: T1, human δ opioid receptor; test: competition vs [3H]DPDPE, hDOR cell membranes
# [6] = target: T5, human NK1 receptor (human, UniProt P25103 1-407); test: competition vs [3H]Substance P, hNK1 CHO cell membranes
# T5 construct: whole, on cells; membrane preparations of the transfected cells were used; also called hNK1; human neurokinin-1 receptor
# T5 sequence (P25103 whole entry): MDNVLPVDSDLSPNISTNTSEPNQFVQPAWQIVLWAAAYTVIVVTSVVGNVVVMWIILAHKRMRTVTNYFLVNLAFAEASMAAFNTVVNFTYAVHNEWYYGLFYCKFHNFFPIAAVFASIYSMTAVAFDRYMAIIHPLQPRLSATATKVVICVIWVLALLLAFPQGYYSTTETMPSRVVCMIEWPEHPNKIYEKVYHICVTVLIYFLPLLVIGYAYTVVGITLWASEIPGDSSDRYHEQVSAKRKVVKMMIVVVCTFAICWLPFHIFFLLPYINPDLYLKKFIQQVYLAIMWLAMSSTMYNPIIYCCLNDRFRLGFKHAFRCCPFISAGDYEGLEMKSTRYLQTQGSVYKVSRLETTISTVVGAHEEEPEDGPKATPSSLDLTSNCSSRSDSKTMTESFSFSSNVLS
# [7] = target: T6, rat NK1 receptor (rat, UniProt P14600 1-407); test: competition vs [3H]Substance P, rNK1 CHO cell membranes
# T6 construct: whole, on cells; membrane preparations of the transfected cells were used; also called rNK1; rNK-1
# T6 sequence (P14600 whole entry): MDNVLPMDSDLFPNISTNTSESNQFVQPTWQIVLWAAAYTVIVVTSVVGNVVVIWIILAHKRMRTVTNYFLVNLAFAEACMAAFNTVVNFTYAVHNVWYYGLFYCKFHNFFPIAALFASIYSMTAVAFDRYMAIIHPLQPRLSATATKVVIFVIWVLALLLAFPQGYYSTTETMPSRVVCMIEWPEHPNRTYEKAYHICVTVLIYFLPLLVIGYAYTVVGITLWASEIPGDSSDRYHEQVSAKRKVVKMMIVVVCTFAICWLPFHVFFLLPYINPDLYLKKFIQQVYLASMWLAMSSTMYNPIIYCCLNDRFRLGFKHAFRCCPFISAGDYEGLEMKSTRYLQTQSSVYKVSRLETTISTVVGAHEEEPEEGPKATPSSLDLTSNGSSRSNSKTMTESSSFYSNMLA
# [8] = target: T7, µ opioid receptor of the guinea pig isolated ileum (guinea pig, UniProt P97266 1-98); test: cell-based or functional assay; remark: listed apart in the source
# T7 sequence (P97266 whole entry): as the sequence (P97266 whole entry) above
# [9] = target: T5, human NK1 receptor; test: competition vs [3H]Substance P, hNK1 CHO cell membranes; remark: listed apart in the source
# [10] = target: T7, µ opioid receptor of the guinea pig …; test: cell-based or functional assay; remark: listed apart in the source
# [11] = target: T8, human δ opioid receptor (human, UniProt P41143 1-372); test: cell-based or functional assay; remark: listed apart in the source
# T8 sequence (P41143 whole entry, stated change not applied): as the sequence (P41143 whole entry, stated change not applied) above
# [12] = target: T8, human δ opioid receptor; test: competition vs [3H]DPDPE, membranes of hDOR-transfected HN9.10 cells
# [13] = target: T9, rat NK1 receptor (rat, UniProt P14600 1-407); test: competition vs [3H]substance P, membranes of rNK1-transfected CHO cells
# T9 construct: whole, on cells; Assayed as membrane preparations of transfected CHO cells; also called rNK1; rNK-1
# T9 sequence (P14600 whole entry): as the sequence (P14600 whole entry) above
# [14] = target: T4, rat µ opioid receptor; test: cell-based or functional assay
# [15] = target: T2, µ opioid receptor of the guinea pig …; test: cell-based or functional assay; remark: listed apart in the source
# [16] = target: T2, µ opioid receptor of the guinea pig …; test: cell-based or functional assay; remark: listed apart in the source
# [17] = target: T6, rat NK1 receptor; test: competition vs [3H]Substance P, rNK1 CHO cell membranes; remark: listed apart in the source
# [18] = target: T1, human δ opioid receptor; test: cell-based or functional assay; remark: listed apart in the source
# [19] = target: T4, rat µ opioid receptor; test: cell-based or functional assay; remark: listed apart in the source
# [20] = target: T2, µ opioid receptor of the guinea pig …; test: cell-based or functional assay; remark: listed apart in the source
# [21] = target: T3, guinea pig NK1 receptor; test: cell-based or functional assay; remark: listed apart in the source
# [22] = target: T4, rat µ opioid receptor; test: competition vs [3H]DAMGO, rMOR cell membranes; remark: listed apart in the source
# [23] = target: T1, human δ opioid receptor; test: competition vs [3H]DPDPE, hDOR cell membranes; remark: listed apart in the source
# [24] = target: T6, rat NK1 receptor; test: competition vs [3H]Substance P, rNK1 CHO cell membranes; remark: listed apart in the source
binder,measurement,setting,value
B1,[35S]GTPγS binding EC50,[1],0.02 nM
same,[35S]GTPγS binding Emax,[1],11%
same,[35S]GTPγS binding LogEC50,[1],-10.8
same,GPI (µ) IC50,[2],1000 nM
same,GPI Substance P antagonist Ke,[3],2.2 nM
same,Ki,[4],79 nM
same,LogIC50,[4],-6.8
same,Ki,[5],1.3 nM
same,LogIC50,[5],-8.6
same,Ki,[6],0.1 nM
same,LogIC50,[6],-9.7
same,LogIC50,[7],-7
Y[dA]GFLW-{O‑Bzl(CF3)2} [Tyr-DAla-Gly-Phe-Leu-Trp-O-Bzl(CF3)2 (NP37)],GPI/LMMP µ-agonist IC50,[8],45.4 nM
Y[dA]GFMW-{O‑Bzl(CF3)2} [Tyr-DAla-Gly-Phe-Met-Trp-O-Bzl(CF3)2 (NP38)],GPI/LMMP µ-agonist IC50,[8],393 nM
"Y[dA]G[Phe(4-F)]-{O‑3,5‑Bzl(CF3)2} (also called NP62) [Tyr-D-Ala-Gly-pFPhe-O-3′,5′(CF3)2-Bzl]",Ki,[9],0.2 nM
Y[dA]GFPW-{O‑Bzl(CF3)2} [Tyr-DAla-Gly-Phe-Pro-Trp-O-Bzl(CF3)2 (NP39)],GPI/LMMP µ-agonist IC50,[8],259 nM
"Y[dA]GW-{OBzl(3,5-(CF3)2)} [Tyr-D-Ala-Gly-Trp-O-3′,5′(CF3)2-Bzl (NP44)]",GPI µ-agonist IC50,[10],844 nM
"Y[dA]GFW-{OBzl(3,5-(CF3)2)} [Tyr-D-Ala-Gly-Phe-Trp-O-3′,5′(CF3)2-Bzl (NP36)]",GPI µ-agonist IC50,[10],523 nM
"H-Y[dA]GFMPLW-{NH(3,5-(CF3)2-benzyl)} (also: TFA salt, TFA salt; also called TY027; TY27) [H-Tyr-D-Ala-Gly-Phe-Met-Pro-Leu-Trp-NH-3,5-Bzl(CF3)2]",[35S]GTPγS binding EC50,[11],8.6 nM
same,[35S]GTPγS binding Emax,[11],58%
same,[35S]GTPγS binding LogEC50,[11],-8.1
same,LogIC50,[12],-8.8
same,Ki,[13],7.3 nM
same,LogIC50,[13],-7.6
"Y[dA]GFW-{OBzl(3,5-(CF3)2)} (also called NP36) [Tyr-D-Ala-Gly-Phe-Trp-O-3′,5′(CF3)2-Bzl]",Ki,[9],0.0005 nM
"Y[dA]G[Phe(4-Cl)]-{OBzl(3,5-(CF3)2)} (also called NP52) [Tyr-D-Ala-Gly-pClPhe-O-3′,5′(CF3)2-Bzl]",Ki,[9],8.04 nM
"Y[dA]G[Phe(4-F)]-{OBzl(3,5-(CF3)2)} [Tyr-D-Ala-Gly-pFPhe-O-3′,5′(CF3)2-Bzl (NP62)]",GPI µ-agonist IC50,[10],208 nM
B2,[35S]GTPγS binding EC50,[1],14 nM
same,[35S]GTPγS binding Emax,[1],22%
same,[35S]GTPγS binding LogEC50,[1],-7.9
same,[35S]GTPγS binding EC50,[14],53 nM
same,[35S]GTPγS binding Emax,[14],12%
same,[35S]GTPγS binding LogEC50,[14],-7.3
same,GPI (µ) IC50,[2],280 nM
same,GPI Substance P antagonist Ke,[3],4.7 nM
same,Ki,[4],52 nM
same,LogIC50,[4],-6.9
same,Ki,[5],7.8 nM
same,LogIC50,[5],-7.8
same,LogIC50,[7],-6.9
"Y[dA]GFMPLW-{NH(3,5-(CF3)2-benzyl)} (also called TY027) [TyrDAlaGlyPheMetProLeuTrpNHBn(CF3)2]",GPI (µ) IC50,[15],490 nM
same,[35S]GTPγS binding EC50,[1],8.6 nM
same,[35S]GTPγS binding Emax,[1],58%
same,[35S]GTPγS binding LogEC50,[1],-8.1
same,GPI (µ) IC50,[2],490 nM
same,GPI/LMMP IC50,[16],488 nM
same,LogIC50,[5],-8.8
same,Ki,[7],7.3 nM
same,LogIC50,[7],-7.6
same,Ki,[17],7.27 nM
"Y[dA]GF[dF]PLW-{OBzl(3,5-(CF3)2)} (also called TY007) [TyrDAlaGlyPheDPheProLeuTrpOBn(CF3)2]",GTP binding EC50,[18],16.7 nM
same,GTP binding Emax,[18],22.9%
same,GTP binding EC50,[19],345 nM
same,GTP binding Emax,[19],23.6%
same,"GPI/LMMP, inhibition at 1 mM",[20],9%
same,GPI/LMMP SP antagonist Ke,[21],69.6 nM
same,Ki,[22],410 nM
same,Ki,[23],110 nM
same,IC50,[24],66.7 nM
"Y[dA]GFGPLW-{OBzl(3,5-(CF3)2)} (also: TFA salt, also called TY006) [TyrDAlaGlyPheGlyProLeuTrpOBn(CF3)2]",GTP binding EC50,[18],50.2 nM
same,GTP binding Emax,[18],33.6%
same,GTP binding EC50,[19],41.7 nM
same,GTP binding Emax,[19],35.9%
same,GPI/LMMP IC50,[20],384 nM
same,GPI/LMMP SP antagonist Ke,[21],5.4 nM
same,Ki,[22],27 nM
same,Ki,[23],36.1 nM
same,IC50,[24],15.6 nM
"Y[dA]GFFPLW-{OBzl(3,5-(CF3)2)} (also called TY003) [TyrDAlaGlyPhePheProLeuTrpOBn(CF3)2]",GTP binding EC50,[18],20.8 nM
same,GTP binding Emax,[18],39%
same,GTP binding EC50,[19],58.7 nM
same,GTP binding Emax,[19],36.3%
same,"GPI/LMMP, inhibition at 1 mM",[20],7%
same,GPI/LMMP SP antagonist Ke,[21],14.4 nM
same,Ki,[22],28.3 nM
same,Ki,[23],14.6 nM
same,IC50,[24],19.3 nM
"Y[dA]GFLPLW-{OBzl(3,5-(CF3)2)} (also called TY004) [TyrDAlaGlyPheLeuProLeuTrpOBn(CF3)2]",GTP binding EC50,[18],9.6 nM
same,GTP binding Emax,[18],42.5%
same,GTP binding Emax,[19],44.5%
same,GPI/LMMP IC50,[20],341 nM
same,GPI/LMMP SP antagonist Ke,[21],19.4 nM
same,Ki,[22],23.3 nM
same,Ki,[23],5 nM
same,IC50,[24],20.9 nM
